In article doi:10.1101/2020.08.19.257774 (bioRxiv, 2020):

How the values were obtained:
[1] = target: the molecule itself; test: cryo-EM structure
[2] = target: the molecule itself; test: negative stain EM

| Protein | binding result [1] | binding result [2] |
| --- | --- | --- |
| A. thaliana Light-dependent Protochlorophyllide OxidoReductase isoform B (AtPORB) (enzyme) QTAATSSPTVTKSVDGKKTLRKGNVVVTGASSGLGLATAKALAETGKWNVIMACRDFLKAERAAKSVGMPKDSYTVMHLDLASLDSVRQFVDNFRRTETPLDVLVCNAAVYFPTAKEPTYSAEGFELSVATNHLGHFLLARLLLDDLKKSDYPSKRLIIVGSITGNTNTLAGNVPPKANLGDLRGLAGGLNGLNSSAMIDGGDFDGAKAYKDSKVCNMLTMQEFHRRFHEETGVTFASLYPGCIASTGLFREHIPLFRALFPPFQKYITKGYVSETESGKRLAQVVSDPSLTKSGVYWSWNNASASFENQLSEEASDVEKARKVWEISEKLVGLA | binds | – |
| Synechocystis LPOR (enzyme, UniProt Q59987 1-322, looked up) MEQPMKPTVIITGASSGVGLYGAKALIDKGWHVIMACRNLDKTQKVADELGFPKDSYTIIKLDLGYLDSVRRFVAQFRELGRPLKALVCNAAVYFPLLDEPLWSADDYELSVATNHLGHFLLCNLLLEDLKACPDADKRLIILGTVTANSKELGGKIPIPAPPDLGNFEGFEAGFKKPIAMINNKKFKSGKAYKDSKLCNMLTTRELHRRFHQETGIVFNSLYPGCVADTPLFRNHYSLFRTIFPWFQKNVTKGYVSQELAGERVAMVVADDKFKDSGVHWSWGNRQQAGREAFVQELSEQGSDAQKAQRMWDLSEKLVGLV | – | binds |
